According to paper PMC8844045, “Dynamic FMR1 granule phase switch instructed by m6A modification contributes to maternal RNA decay”:

B1: mixed GGACU/AGACU/GAACU probe, m6A (ssRNA)
RNA: GGGGACUAGACUGAACUGGGACUAGACUGAACUGGGACUAGACUGAACUGUAC
modifications: all A = m6A (m6ATP)
B2: mixed GGACU/AGACU/GAACU probe, unmodified (ssRNA)
RNA: B1 RNA
B3: AGACU (9x), m6A (ssRNA)
RNA: GGGAGACUAGACUAGACUGAGACUAGACUAGACUGAGACUAGACUAGACUGUAC
modifications: all A = m6A (m6ATP)

Tests used:
FMR1 (MBP fusion) [1] = biological target: T1, FMR1 (MBP fusion) (UniProt Q9NFU0 1-684); test: SPR; EMSA: 10 mM HEPES pH 7.4, 50 mM KCl, 1 mM DTT (printed DDT), 1 mM EDTA, 0.05% Triton X-100, 5% glycerol, 10 ng/ul salmon DNA, 25 C, then 0.2% glutaraldehyde; SPR: 20 mM HEPES pH 7.4, 150 mM KCl, 1.5 mM MgCl2, 0.1% NP40, 25 C; pull-down: 10 mM Tris-HCl pH 7.5, 150 mM KCl, 1.5 mM MgCl2, 0.1% NP-40, 0.5 mM DTT, 4 C; conditions: protein: recombinant; label: biotin-16-UTP
T1 sequence (Q9NFU0 whole entry, the tested form may be a part): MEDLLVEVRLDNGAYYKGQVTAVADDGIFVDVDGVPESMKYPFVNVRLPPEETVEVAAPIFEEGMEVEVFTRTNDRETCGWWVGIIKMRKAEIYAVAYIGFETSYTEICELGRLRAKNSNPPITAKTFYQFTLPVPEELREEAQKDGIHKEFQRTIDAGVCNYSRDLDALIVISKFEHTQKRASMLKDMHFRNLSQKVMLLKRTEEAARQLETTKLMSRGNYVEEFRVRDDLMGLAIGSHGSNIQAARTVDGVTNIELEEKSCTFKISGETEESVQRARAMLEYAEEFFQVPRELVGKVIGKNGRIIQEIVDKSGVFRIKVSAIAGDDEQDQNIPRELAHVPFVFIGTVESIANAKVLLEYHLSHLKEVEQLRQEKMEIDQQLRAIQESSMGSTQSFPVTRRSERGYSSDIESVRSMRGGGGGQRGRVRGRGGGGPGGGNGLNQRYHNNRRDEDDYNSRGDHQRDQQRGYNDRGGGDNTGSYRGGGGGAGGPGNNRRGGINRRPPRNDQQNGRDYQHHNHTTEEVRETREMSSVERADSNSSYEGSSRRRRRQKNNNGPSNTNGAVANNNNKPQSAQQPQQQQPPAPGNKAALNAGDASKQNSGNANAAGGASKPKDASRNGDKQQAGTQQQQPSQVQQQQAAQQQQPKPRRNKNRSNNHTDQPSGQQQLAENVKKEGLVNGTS

FMR1 (MBP fusion) [2] = biological target: T1, FMR1 (MBP fusion); test: EMSA; EMSA: 10 mM HEPES pH 7.4, 50 mM KCl, 1 mM DTT (printed DDT), 1 mM EDTA, 0.05% Triton X-100, 5% glycerol, 10 ng/ul salmon DNA, 25 C, then 0.2% glutaraldehyde; SPR: 20 mM HEPES pH 7.4, 150 mM KCl, 1.5 mM MgCl2, 0.1% NP40, 25 C; pull-down: 10 mM Tris-HCl pH 7.5, 150 mM KCl, 1.5 mM MgCl2, 0.1% NP-40, 0.5 mM DTT, 4 C; conditions: protein: recombinant; label: biotin-16-UTP

Binder	Kd (FMR1 (MBP fusion) [1]) [nM]	binding result (FMR1 (MBP fusion) [2])
B1	80.7	–
B2	3600	–
B3	–	binds
